According to the DeepSol protein solubility set:

Test: soluble on expression in E. coli; label from the status in PepcDB or PDB records

Sequence: MGSDKIHHHHHHMKILVYGINYSPELTGIGKYTGEMVAWMAQEGHEVRVITAPPYYPQWKVGERYSAWRYRREEGEATVWRCPLYVPKQPSTLKRLLHLGSFALSSFFPLMAQRRWKPDRIIGVVPTLFCTPGMRLLATLSGARTVLHIQDYEVDAMLGLGMAGKGKRGSVARLATAFERSALRNVDNVSTISRSMMNKAREKGVAAEKILFFPNWSEVARFQDVNDADVTALRQQLGLPEGKKIVLYSGNIGEKQGLEKVIDAAERLRDRPLIFAIVGQGGGKARLENMARERGLANIKFLPLQPYDALPALLKMGDCHLVVQKRGAADAVLPSKLTNILAVGGNAVITAEPHTELGQLCARYPGIAVCVEPESTDALVNGISQALAMPKNNTTAREYAERTLNKENVLRQFIADIRG
- soluble on expression in E. coli: not soluble

Sequence: MALTSFLPAPTQLSQDQLEAEEKARSQRSRQTSLVSSRREPPPYGYRKGWIPRLLEDFGDGGAFPEIHVAQYPLDMGRKKKMSNALAIQVDSEGKIKYDAIARQGQSKDKVIYSKYTDLVPKEVMNADDPDLQRPDEEAIKEITEKTRVALEKSVSQKVAAAMPVRAADKLAPAQYIRYTPSQQGVAFNSGAKQRVIRMVEMQKDPMEPPRFKINKKIPRGPPSPPAPVMHSPSRKMTVKEQQEWKIPPCISNWKNAKGYTIPLDKRLAADGRGLQTVHINENFAKLAEALYIADRKAREAVEMRAQVERKMAQKEKEKHEEKLREMAQKARERRAGIKTHVEKEDGEARERDEIRHDRRKERQHDRNLSRAAPDKRSKLQRNENRDISEVIALGVPNPRTSNEVQYDQRLFNQSKGMDSGFAGGEDEIYNVYDQAWRGGKDMAQSIYRPSKNLDKDMYGDDLEARIKTNRFVPDKEFSGSDRRQRGREGPVQFEEDPFGLDKFLEEAKQHGGSKRPSDSSRPKEHEHEGKKRRKE
- soluble on expression in E. coli: soluble

Sequence: MAQSNTTTTTLVVKSEDQEEVQEEHVLRLRAPPSPPHVTWAEGVVDNEHMGRLKSNCCCIYVAPRQWDDPSTWEPNEYETEHCRGHTLPERKKKKEDGGDEGDDENKENKDNKDNKDNKDNKDNNGCGCDHC
- soluble on expression in E. coli: not soluble

Sequence: MAEVPHHNIPAVDMLNATSRLQLEAQELRNNKPNWGSYFRSQMIQEDDYNFITSFENAKSKEERDQVLAANNANGQAAKTMANLITQVAKDQNVRYVLTLFDDMLQEDKSRVELFHSAAARQKRTVWSQYLGILQRQDNFIVNQMSSIIAKLACFGTTRMEGQDLQYYFSFLKEQLKNSTTNDYMNTTARCLQMMLRHDEYRHEFVDSDGVQTLVTALNGKTNFQLQYQLIFAVWCLTFNADIARKAPSLGLIQALGDILSESTKEKVIRIILASFVNILSKVDEREVKREAALQMVQCKTLKTLELMDAKKYDDPDLEDDVKFLTEELTLSVHDLSSYDEYYSEVRSGRLQWSPVHKSEKFWRENASKFNDKQFEVVKILIKLLESSHDPLILCVASHDIGEYVRHYPRGKTVVEQYQGKAAVMRLLTAEDPNVRYHALLAVQKLMVHNWEYLGKQLDSDVQTDTVAVK
- soluble on expression in E. coli: not soluble

Sequence: MRAFYSTTEEISALFAKQQEQLKTMQRTLEDEDNCDNTSLDIDLNPINRSPNRANTQGDKRATSHLNFAARASSSTSGQRSTRNEVVDTSCEDADATQKHDCEIMSQEGQNTQEAEYPSSDKVAKGGFGSDIEGIGTAPTSGTDPVGTEQVNETQSPGNDYERNDHLRKSIILAGDTMQIDCETQVHESVQIEGAVLLLRNPNDRRDTQDIEGVGTIGTSDLLASEVAGSWANSTNPSVHGENETERSREDEESQTQKIKEVTIVQDSAGQIGESQTKPTSPGVLVTNKDDAERGVINEPVGITDQGKIKHGTRSDSETESCSDSDDDHEKEKHNPVSDSDTEGSDMNDDKGSLSSDPDTERSHEVDGDQKKQVDTMDEDDKAT
- soluble on expression in E. coli: soluble

Sequence: MYEAIGHRVEDGVAEITIKLPRHRNALSVKAMQEVTDALNRAEEDDSVGAVMITGAEDAFCAGFYLREIPLDKGVAGVRDHFRIAALWWHQMIHKIIRVKRPVLAAINGVAAGGGLGISLASDMAICADSAKFVCAWHTIGIGNDTATSYSLARIVGMRRAMELMLTNRTLYPEEAKDWGLVSRVYPKDEFREVAWKVARELAAAPTHLQVMAKERFHAGWMQPVEECTEFEIQNVIASVTHPHFMPCLTRFLDGHRADRPQVELPAGV
- soluble on expression in E. coli: soluble

Sequence: MSLTANSHAVMTVGDQTVSPQEFRLAYQRQVSDLSRQFGTRLTTEQAKAFGIDRQVFSQLAAGAALDELASKMNLGLSENRLANLIAEDPAFKSVNGQFDRNLFSERLRNSGFREDDYIKERSKVAVRSQIVEAVSDGFAAPQVLVDALKQYRNEQRAVDYVILSNAVIPPVKAPGDDVLTPWFETNKSKYRAPEFRKFTYVKLEPSDIAEPASVTDAQIADYYNSHKDSFRTAGRRTVEQLTFPDKEMAAAAAEQIRLGNTTYDQVVKDQGKTASDVTLGEFTKDTIPDQSIADAAFAIQKDGGVSPVVDGSFGPILLRVTGIKPETEGHHHHHH
- soluble on expression in E. coli: soluble

Sequence: MVEMAATGYPVLILKEGTQRTYGREALRANILAARVLAEMLKSSLGPRGLDKMLVDAFGDITVTNDGATIVKEMEIQHPAAKLLVEVAKAQDAEVGDGTTSVVVLAGALLEKAEKLLDENLHPTIIIEGYTKAMEEALRLVDEAAVPVEVEDDSVLRRIAETTLASKFVGTGPERDKIISMVIDAIRTVAEKRPDGGYEVDLDYVKIEKKKGGSLLDSKLVRGIVLDKEVVHPAMPKRVENAKILVLDAPLEVQKPELTTKIRVTDIEKLESFLEEETRMLRDMVEKIAATGANVVITQKGIDEVAQHFLAKKGILAVRRVKRSDIEKVAKATGAKIVTSLRDLKPEYLGYAELVEERKVGEDKMVFIEGAKNPKSVTILLRGANDMLLDEAERNIKDALHGLRNILREPKIVGGGGAVEVELALKLKEFARTVGGKQQLAIEAYAEALETIPTVLAESAGMDALEALLKLRSLHSQGYKFAGVNVLEGKIEEDMTKINVYEPVLVKKQVIKSASEAAISILKIDDVIAAAPPKKKEKKGKTGEEEEEEGGGSKFEF
- soluble on expression in E. coli: soluble

Sequence: FVLTPGNPRWENTHLTYRIENYTPDLSREDVDRAIEKAFQLWSNVSPLTFTKVSEGQADIMISFVRGDHRDNSPFDGPGGNLAHAFQPGPGIGGDAHFDEDERWTKNFRDYNLYRVAAHELGHSLGLSHSTDIGALMYPNYIYTGDVQLSQDDIDGIQAIYGPSENPVQPSGPQTPQVCDSKLTFDAITTLRGELMFFKDRFYMRTNSFYPEVELNFISVFWPQVPNGLQAAYEIADRDEVRFFKGNKYWAVRGQDVLYGYPKDIHRSFGFPSTVKNIDAAVFEEDTGKTYFFVAHECWRYDEYKQSMDTGYPKMIAEEFPGIGNKVDAVFQKDGFLYFFHGTRQYQFDFKTKRILTLQKANSWFNCRKN
- soluble on expression in E. coli: soluble

Sequence: HHHHHHFADLVIQVIDELKQFGVSVKTYGAKGDGVTDDIRAFEKAIESGFPVYVPYGTFMVSRGIKLPSNTVLTGAGKRNAVIRFMDSVGRGESLMYNENVTTGNENIFLSSFTLDGNNKRLGQGISGIGGSRESNLSIRACHNVYIRDIEAVDCTLHGIDITCGGLDYPYLGDGTTAPNPSENIWIENCEATGFGDDGITTHHSQYINILNCYSHDPRLTANCNGFEIDDGSRHVVLSNNRSKGCYGGIEIKAHGDAPAAYNISINGHMSVEDVRSYNFRHIGHHAATAPQSVSAKNIVASNLVSIRPNNKRGFQDNATPRVLAVSAYYGVVINGLTGYTDDPNLLTETVVSVQFRARNCSLNGVVLTGFSNSENGIYVIGGSRGGDAVNISNVTLNNSGRYGVSIGSGIENVSITNISGIGDGINSPVALVSTINSNPEISGLSSIGYPTVARVAGTDYNDGLTLFNGAFRASTTSSGKIHSEGFIMGSTSGCEASVSKSGVLTSSSSKTSSERSLIAGSSTSEAKGTYNTILGSLGAVADEQFAALISASQSRASGNHNLILSSYGINTTGSYKVNGGFEKINWELDSLNGRIKARDTVTGGNTWSDFAEYFESLGGQVIETGYLVTLEKGKIRKAEKGEKIIGVISETAGFVLGESSFEWQGAVLKNEFGGIIYEEVTTEDGVKFKRPLPNPDFDPNKNYIPRSQRREWHVVGLLGQIAVRIDETVKQGHSIDAVGGVATDGDNFIVQEITTPYTKEKGYGVAIVLVK
- soluble on expression in E. coli: soluble

Sequence: MAHHHHHHMPSMSASRQAPKVSATARATKFSTIRKLPTAEHSTSPVAAAPTSSEEPSRLALISFDVDATIDTVNLLHEEQHRVSEEDATDKRIGRYHYAQLVARLNEQRSLYQSTAMFVETMLKEVNHSTEASVAMKASAATWGLKLLAKHAGHGAINAVLESLLPALYCEYNPKKLCSAPPAVQLQVRRPDVIMDNPYFTHSMFVDEVQVDKRSATKLQKSLEAALRANDQRRSIVCHLIERRRQQQLEVTFRCWRHHVRQQHLLRMMGDNTAKQRAEEMSRLRVQTVFYHWKLLVERSRSTYLTERLHEAAFQLENAKNQFQLQCYRADRLVKTAKEATEEMERVSQINKGLQRQVDELKEEQVRKEREYKEKLTRNVTQVLKLLETYDSLARVLLHSKQADEYVMPEKPLLARHSQSGDGGQEASENEASRLR
- soluble on expression in E. coli: not soluble

Sequence: MSEPADLIGEIDALGIKLQEARASITRRFIGQERVVDLTLTALLCGGHALLIGLPGLGKTRLVETLSTVMGLHGNRIQFTPDLMPADILGSEVLDTAEDGSRRFRFIPGPIFCQLLMADEINRASPRTQSALLQAMQEKTVTVAGENRPLGTPFHVLATQNPIEQEGTYPLPEAQLDRFLVQIDVDYPDRATEREILLATTGVEEAEAHQVMSQADLLGAQVLLRRMPVGESVVEMILDLVRAFRPDEPGVSDRVRDTVAWGPGPRAAQALMLTVRARALLQGRLAPSPEDVLDMARPVLSHRMALNFAARARGDTLAGLIDETAASLTRTEAAALEHHHHHH
- soluble on expression in E. coli: not soluble

Sequence: MSMPYDNEAKIKQAVILLQKIVNDTSVPRNIRRAATDAIRNLQDLGLSPAVRAANAIGILEDISQDPNMPTHARISIWNVVSILETVKD
- soluble on expression in E. coli: not soluble

Sequence: FQIGDMVARKSYQMDVLFRIIGIEQTSKGNSIAILHGDEVRLIADSDFSDLVAVKKDEQMMRKKKDESRMNESLELLRQDYKLLREKQEYYATSQYQHQEHYFHMPGKVLHLDGDEAYLKKCLNVYKKIGVPVYGIHCHEKKMSASIEVLLDKYRPDILVITGHDAYSKQKGGIDDLNAYRHSKHFVETVQTARKKIPHLDQLVIFAGACQSHFESLIRAGANFASSPSRVNIHALDPVYIVAKISFTPFMERINVWEVLRNTLTREKGLGGIETRGVLRIGMPYKSN
- soluble on expression in E. coli: not soluble

Sequence: MKRQLILEDGSFFVGEAFGSLKETTGEVVFNTGMTGYQEILTDPSYCGQIVTMTYPLIGNYGINRDDFEAIRPHVHGFIVKEACVKPSNWRGELTLDEYLKEKDIPGLAGIDTRKLTRLIRQYGTLKGMICGLDVDPVEAAAKLRAMEWPRDQVRRVSTKSAYPSPGRGERIVLIDFGMKHGILRELNKRNCDVIVLPYNATAEEVLGWHPDGVMLSNGPGDPKDVPEAIEMIRGILGKVPLFGICLGHQLFALACGANTEKMKFGHRGSNHPVKDLRTGKVAITSQNHGYTVTHESLSGTRLEVTHIALNDGTVEGLRHLDVPAFTVQYHPEASPGPEDANPLFDEFLALIREFNKKGEVIHA
- soluble on expression in E. coli: soluble

Sequence: MGSDKIHHHHHHMAEVHVIGQIIGATGFSESSLFCKWGIHTGAAWKLLSGVREGQTQVDTPQIGDMAYWSHPIDLHFATKGLQGWPRLHLQVWSQDSFGRCQLAGYGFCHVPSSPGTHQLDCPTWRPLGSWREQLARAFVGGGPQLLHADTIYSGADRYRLHTAAGGTVHLGIGLLLRHFDRYGVEC
- soluble on expression in E. coli: not soluble

Sequence: MAHHHHHHMAFAGSNDVLKVQKMLQVLVEKRSDKKVNMDGSAKPTDQPHHPAPCGNAVDGKAPQGADAKGPLLDGKRANPTLGSSKSAKTGPAD
- soluble on expression in E. coli: not soluble
